# Assay results taken from patent US20240261333A1 (published 2024).
# B1: N-terminal FLAG tagged B3GNT2 (enzyme, human, UniProt Q9NY97 1-397, looked up)
# chain: MSVGRRRIKLLGILMMANVFIYFIMEVSKSSSQEKNGKGEVIIPKEKFWKISTPPEAYWNREQEKLNRQYNPILSMLTNQTGEAGRLSNISHLNYCEPDLRVTSVVTGFNNLPDRFKDFLLYLRCRNYSLLIDQPDKCAKKPFLLLAIKSLTPHFARRQAIRESWGQESNAGNQTVVRVFLLGQTPPEDNHPDLSDMLKFESEKHQDILMWNYRDTFFNLSLKEVLFLRWVSTSCPDTEFVFKGDDDVFVNTHHILNYLNSLSKTKAKDLFIGDVIHNAGPHRDKKLKYYIPEVVYSGLYPPYAGGGGFLYSGHLALRLYHITDQVHLYPIDDVYTGMCLQKLGLVPEKHKGFRTFDIEEKNKNNICSYVDLMLVHSRKPQEMIDIWSQLQSAHLKC
# notes: Overexpressed in cells and pulled down from the lysate with mouse anti-FLAG antibody; also called N-FLAG B3GNT2; N-term FLAG; not shown: N-terminal FLAG tag
# Target: T1, UBAP2L (human, UniProt Q14157 1-1087)
# T1 construct: also called NP_055662.3 (+3)
# T1 sequence (looked up): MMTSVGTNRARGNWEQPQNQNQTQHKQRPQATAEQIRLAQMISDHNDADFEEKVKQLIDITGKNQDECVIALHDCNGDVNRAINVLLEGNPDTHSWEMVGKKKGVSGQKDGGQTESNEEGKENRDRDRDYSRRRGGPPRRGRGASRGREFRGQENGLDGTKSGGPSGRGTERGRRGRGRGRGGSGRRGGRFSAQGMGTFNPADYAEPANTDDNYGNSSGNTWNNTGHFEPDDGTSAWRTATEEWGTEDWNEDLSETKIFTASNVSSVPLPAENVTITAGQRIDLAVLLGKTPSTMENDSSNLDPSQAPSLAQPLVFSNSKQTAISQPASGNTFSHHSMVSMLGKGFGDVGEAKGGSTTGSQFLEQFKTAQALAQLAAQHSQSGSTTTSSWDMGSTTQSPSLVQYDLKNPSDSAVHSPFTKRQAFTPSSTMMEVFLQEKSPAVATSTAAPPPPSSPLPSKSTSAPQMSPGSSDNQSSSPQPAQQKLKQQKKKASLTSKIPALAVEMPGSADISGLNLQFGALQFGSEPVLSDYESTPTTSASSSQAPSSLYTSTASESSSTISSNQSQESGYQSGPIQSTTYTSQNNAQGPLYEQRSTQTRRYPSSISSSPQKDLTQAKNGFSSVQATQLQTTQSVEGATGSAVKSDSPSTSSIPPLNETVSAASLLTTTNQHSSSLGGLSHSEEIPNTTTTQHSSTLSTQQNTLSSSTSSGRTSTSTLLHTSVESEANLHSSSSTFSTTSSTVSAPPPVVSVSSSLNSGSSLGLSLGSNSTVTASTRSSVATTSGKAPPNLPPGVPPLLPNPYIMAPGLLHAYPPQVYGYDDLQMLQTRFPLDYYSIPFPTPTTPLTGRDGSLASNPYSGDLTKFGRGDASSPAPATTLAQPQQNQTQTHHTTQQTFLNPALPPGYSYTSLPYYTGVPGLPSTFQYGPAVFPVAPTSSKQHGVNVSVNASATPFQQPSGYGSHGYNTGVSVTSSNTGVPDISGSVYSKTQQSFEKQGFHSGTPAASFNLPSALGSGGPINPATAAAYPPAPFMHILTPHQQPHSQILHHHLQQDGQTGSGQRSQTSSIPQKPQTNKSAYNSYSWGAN
# Experiment: co-IP, anti-FLAG, lysate of cells with N-FLAG B3GNT2; mass spectrometry
binder,measurement,value
B1,co-IP mass spectrometry count,20
